Tests used:
Settings in all cases: reference: wild type; sites Y38
Drp1 [1] = target: Drp1 (UniProt O00429); experiment: Flag-bead Fis1 pull-down of recombinant Drp1
Drp1 [2] = target: Drp1 (UniProt O00429); experiment: anti-Flag IP of Fis1-Flag, Drp1 blot
Drp1 [3] = target: Drp1 (UniProt O00429); experiment: co-IP, immunoblot

Measured: binding against the reference

Fis1 (from UniProt Q9Y3D6) Y38F
weaker: all assays above

Reference: article PMC8632923
